Measured values: patent US20240067711A1 (MEDYTOX, published 2024)

How the values were obtained:
[1] = molecular target: T1, recombinant human VEGF165 (human, UniProt P15692-4 27-191); assay: cell-based or functional assay
[2] = molecular target: human VEGF (hVEGF), isoform not stated (human, UniProt P15692-4 27-191, limits assumed); assay: ELISA on coated hVEGF (500 ng/ml), detection with anti-hIgG-Fc HRP, A450
Procedure: ELISA was performed to confirm the binding ability to VEGF. First, 100 μl of hVEGF was added to an immunoplate at a concentration of 500 ng/ml and caused to react at room temperature for 1 hour. 2% skim milk was dissolved in PBST, and then, 200 μl thereof was added onto the VEGF-coated wells and the reaction was caused to occur at room temperature for 2 hours. After the reaction, the well was washed three times using 300 μl of PBST, and then, Hz2, AAA0289, AAA0308, AAA0589, AAA0592, and AAA0600, which were purified above, were diluted starting from at a concentration of 100 ng/ml by two-fold to make a total of 11 samples. The samples were placed on the VEGF-coated well and the reaction was caused to occur at room temperature for 20 minutes. After the reaction, the well was washed three times using 300 μl of PBST, and then, anti-hIgG-Fc HRP (1:3000, Thermo) was added thereto at 100 μl/well and then reacted for 30 minutes. Then, the well was washed three times as described above, and the TMB (BioFx company) solution was added thereto at 100 μl/well to develop color at room temperature for 5 minutes. After the color development, 2N sulfuric acid was added at 50 μl/well to stop the color development, and the absorbance was measured at 450 nm, and results are shown in FIGS. 4A and 4B.

[3] = molecular target: T1, recombinant human VEGF165; assay: Octet red96E BLI, human VEGF165 amine-coupled on AR2G sensor, hexamer as analyte (0.0625-4 nM), 30° C.
Procedure: (§1) Affinity for VEGF was determined as follows. Octet red96E was used, and human VEGF immobilized on the biosensor AR2G was interacted with AAA0308, AAA0589, AAA0592, and AAA0600 used as analytes, and binding and dissociation values thereof were compared and measured. As human VEGF, recombinant human VEGF165 (Sinobiological company) was used, and VEGF was immobilized on the AR2G sensor chip by an amine coupling method. At this time, the amount of VEGF used was 10 μg/ml, and the degree of coating was confirmed using a wavelength of 5 nm.
(§2) During measurement, the rotation speed was set to 100, and the temperature was measured at 30° C.
(§3) The concentration of the sample was adjusted using a kinetic buffer (Molecular Device Co.). The antibody solution of each concentration was used as a binding phase for 5 minutes, and then switched to a kinetic buffer to form a dissociation phase for 30 minutes.

[4] = molecular target: T2, FcγRI (R&D system company, 1257-Fc) (UniProt P12314 16-288); assay: Octet; FcγRI loaded on anti-penta-His biosensor, antibody 100 nM as analyte
T2 sequence (P12314 16-288 limits assumed): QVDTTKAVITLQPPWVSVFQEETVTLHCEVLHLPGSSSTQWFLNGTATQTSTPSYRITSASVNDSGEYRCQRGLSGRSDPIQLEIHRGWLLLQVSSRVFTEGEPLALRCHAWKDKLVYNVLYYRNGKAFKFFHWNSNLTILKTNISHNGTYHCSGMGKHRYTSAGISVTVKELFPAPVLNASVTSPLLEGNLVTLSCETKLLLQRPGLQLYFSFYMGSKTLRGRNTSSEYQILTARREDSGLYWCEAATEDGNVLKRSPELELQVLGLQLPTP

[5] = molecular target: T1, recombinant human VEGF165; assay: cell-based or functional assay; remark: listed apart in the source
[6] = molecular target: T1, recombinant human VEGF165; assay: Octet red96E BLI, human VEGF165 amine-coupled on AR2G sensor, hexamer as analyte (0.0625-0.6 nM), 30° C.
Procedure: as §1, §2, §3

[7] = molecular target: T2, FcγRI (R&D system company, 1257-Fc); assay: Octet; FcγRI loaded on anti-penta-His biosensor, antibody 100 nM as analyte, 2 min association and 2 min dissociation
Procedure: Binding evaluation for FcγR I, II, and III was performed as follows. Octet red96E was used, and […] FcγRI(R&D system company, 1257-Fc), […] FcγRII(R&D system company, 1597-CF), and […] FcγRIII(R&D system company, […]) were each loaded on the anti-pentia his biosensor, and a signal of about 5 nm was confirmed. In order to identify the reactivity of AAA0589 and AAA0592 to FcγRI, FcγRII, and FcγRIII, binding force was measured using an antibody concentration of 100 nM as an analyte. During measurement, rpm was set to 100, and the temperature was measured at 30° C. Samples were diluted using kinetic buffer (Molecular Device Co.). The antibody solution of each concentration was used as an association phase for 2 minutes, and then converted to a kinetic buffer to form a dissociation phase for 2 minutes.

Sequence of human VEGF (hVEGF), isoform not stated (P15692 other isoform, or with tags, fused parts or gaps limits assumed): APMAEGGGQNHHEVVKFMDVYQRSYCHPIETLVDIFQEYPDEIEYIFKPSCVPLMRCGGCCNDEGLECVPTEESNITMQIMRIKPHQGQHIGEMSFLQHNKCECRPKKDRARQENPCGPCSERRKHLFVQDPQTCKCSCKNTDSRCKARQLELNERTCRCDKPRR
T1 sequence (P15692 other isoform, or with tags, fused parts or gaps limits assumed): as above

B1: Hz2-F hexamer AAA0589 (antibody, human IgG1, kappa, L234A L235A)
heavy: EVQLVESGGGLVQPGGSLRLSCAVSGIDLNRYSLTWIRQAPGKGLEWVAIVGGSGVTYYANWAKGRFTISRDDSKNTLYLQMNSLRAEDTAVYYCARGSDRSAYAPDIWGQGTLVTVSSASTKGPSVFPLAPSSKSTSGGTAALGCLVKDYFPEPVTVSWNSGALTSGVHTFPAVLQSSGLYSLSSVVTVPSSSLGTQTYICNVNHKPSNTKVDKKVEPKSCDKTHTCPPCPAPEAAGGPSVFLFPPKPKDTLMISRTPEVTCVVVDVSHEDPEVKFNWYVDGVEVHNAKTKPREEQYNSTYRVVSVLTVCLQDWLNGKEYKCKVSNKALPAGIEKTISKAKGQPREPQVYTLPPSRDELTKNQVSLTCLVKGFYPSDIAVEWESNGQPENNYKTTPPVLDSDGSFFLYSKLTVDKSRWQQGNVFSCSVMHHALHNHYTQKSLSLSPGKPTLYNVSLVMSDTAGTCY
light: DIQLTQSPSSLSASVGDRVTITCQSSQSIYSNNYLAWYQQKPGKAPKLLLYQASKLASGVPSRFSGSGSGTDFTLTISSLQPEDFATYYCLGVYDDDADNAFGQGTKVEIKRTVAAPSVFIFPPSDEQLKSGTASVVCLLNNFYPREAKVQWKVDNALQSGNSQESVTEQDSKDSTYSLSSTLTLSKADYEKHKVYACEVTHQGLSSPVTKSFNRGEC
notes: also called hexameric antibody AAA0589
**Q.** With B1 as the binder, how does the “IC50 of inhibition of the VEGF-induced calcium increase in HUVEC cells” value [1] read?
**A.** 200 pM

**Q.** What about the “EC50 (read off the curve)” value [2] of the same binder?
**A.** ~40 pM

**Q.** And the Kd [3]?
**A.** < 1 pM

**Q.** What about the koff [3] of the same binder?
**A.** < 1e-07 s⁻¹

**Q.** What about the kon [3] of the same binder?
**A.** 208000 M⁻¹ s⁻¹

**Q.** Does B1 bind [4]?
**A.** no binding (tested: 100 nM)

**Q.** What about the “IC50 (read off the curve)” value [5] of the same binder?
**A.** ~200 pM

B2: Lu007-F hexamer AAA0592 (antibody, human IgG1, kappa, L234A L235A)
heavy: EVQLVESGGGLVQPGGSLRLSCAASGYDFTHYGMNWIRQAPGKGLEWVGWINTYTGEPTYAADFKRRFTFSLDTSKSTVYLQMNSLRAEDTAVYYCAKYPHYYGTSHWYFDVWGQGTLVTVSSASTKGPSVFPLAPSSKSTSGGTAALGCLVKDYFPEPVTVSWNSGALTSGVHTFPAVLQSSGLYSLSSVVTVPSSSLGTQTYICNVNHKPSNTKVDKKVEPKSCDKTHTCPPCPAPEAAGGPSVFLFPPKPKDTLMISRTPEVTCVVVDVSHEDPEVKFNWYVDGVEVHNAKTKPREEQYNSTYRVVSVLTVCLQDWLNGKEYKCKVSNKALPAGIEKTISKAKGQPREPQVYTLPPSRDELTKNQVSLTCLVKGFYPSDIAVEWESNGQPENNYKTTPPVLDSDGSFFLYSKLTVDKSRWQQGNVFSCSVMHEALHNHYTQKSLSLSPGKPTLYNVSLVMSDTAGTCY
light: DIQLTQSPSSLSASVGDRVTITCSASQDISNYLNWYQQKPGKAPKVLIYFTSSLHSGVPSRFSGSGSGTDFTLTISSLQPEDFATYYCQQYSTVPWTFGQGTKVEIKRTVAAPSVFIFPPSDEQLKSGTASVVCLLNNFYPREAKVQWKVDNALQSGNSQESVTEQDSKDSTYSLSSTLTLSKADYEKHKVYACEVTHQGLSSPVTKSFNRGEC
notes: also called Lu007 hexamer AAA0592
**Q.** With B2 as the binder, how does the “IC50 of inhibition of the VEGF-induced calcium increase in HUVEC cells” value [1] read?
**A.** 200 pM

**Q.** What about the “EC50 (read off the curve)” value [2] of the same binder?
**A.** ~90 pM

**Q.** What about the Kd [3] of the same binder?
**A.** < 1 pM

**Q.** What about the koff [3] of the same binder?
**A.** < 1e-07 s⁻¹

**Q.** And the kon [3]?
**A.** 666000 M⁻¹ s⁻¹

**Q.** Does B2 bind [4]?
**A.** no binding (tested: 100 nM)

**Q.** And the “IC50 (read off the curve)” value [5]?
**A.** ~300 pM

B3: Aflibercept CL kappa hexamer AAA0600 (Fc fusion)
chain: SDTGRPFVEMYSEIPEIIHMTEGRELVIPCRVTSPNITVTLKKFPLDTLIPDGKRIIWDSRKGFIISNATYKEIGLLTCEATVNGHLYKTNYLTHRQTNTIIDVVLSPSHGIELSVGEKLVLNCTARTELNVGIDFNWEYPSSKHQHKKLVNRDLKTQSGSEMKKFLSTLTIDGVTRSDQGLYTCAASSGLMTKKNSTFVRVHEKTVAAPRTVAAPSVFIFPPSDEQLKSGTASVVCLLNNFYPREAKVQWKVDNALQSGNSQESVTEQDSKDSTYSLSSTLTLSKADYEKHKVYACEVTHQGLSSPVTKSFNRGESDKTHTCPPCPAPEAAGGPSVFLFPPKPKDTLMISRTPEVTCVVVDVSHEDPEVKFNWYVDGVEVHNAKTKPREEQYNSTYRVVSVLTVCLQDWLNGKEYKCKVSNKALPAGIEKTISKAKGQPREPQVYTLPPSRDELTKNQVSLTCLVKGFYPSDIAVEWESNGQPENNYKTTPPVLDSDGSFFLYSKLTVDKSRWQQGNVFSCSVMHHALHNHYTQKSLSLSPGKPTLYNVSLVMSDTAGTCY
**Q.** With B3 as the binder, how does the Kd [6] read?
**A.** 2.03 pM

**Q.** And the “IC50 of inhibition of the VEGF-induced calcium increase in HUVEC cells” value [1]?
**A.** 200 pM

**Q.** What about the “EC50 (read off the curve)” value [2] of the same binder?
**A.** ~40 pM

**Q.** And the “IC50 (read off the curve)” value [5]?
**A.** ~200 pM

B4: Hz2 humanized anti-VEGF antibody (monomer) (antibody, V domains shown)
VH: EVQLVESGGGLVQPGGSLRLSCAVSGIDLNRYSLTWIRQAPGKGLEWVAIVGGSGVTYYANWAKGRFTISRDDSKNTLYLQMNSLRAEDTAVYYCARGSDRSAYAPDIWGQGTLVTVSS
VL: DIQLTQSPSSLSASVGDRVTITCQSSQSIYSNNYLAWYQQKPGKAPKLLLYQASKLASGVPSRFSGSGSGTDFTLTISSLQPEDFATYYCLGVYDDDADNAFGQGTKVEIKR
**Q.** How did the “EC50 (read off the curve)” value [2] turn out when B4 was run?
**A.** ~20 pM

B5: Omal013 (positive control antibody) (antibody, human IgG1, kappa)
heavy: not shown
light: B1 light
notes: also called positive control group
**Q.** Does B5 bind [7]?
**A.** binds
